Data taken from patent publication US12338277.

Molecular target: SHIVAD8EO envelope on pseudotyped virus (SHIV (HIV-1 AD8-derived env))
Assay: cell-based or functional assay

With 3BNC117 (antibody) the IC50, TZM-bl neutralization of SHIVAD8EO was 0.14 µg/mL.
